B1: Codanin1 C-terminus (amino acids 1005-1227), labeled with Alexa Fluor 488 (domain or fragment, human, UniProt Q8IWY9 1005-1227, looked up)
chain: AARGERRGCSRACEHHAPLPSHLISEIKDVLSLAVGPRDPDEGVSPEHLEQLLGQLGQTLRCRQFLCPPAEQHLAKCSVELASLLVADQIPILGPPAQYRLERGQARRLLHMLLSLWKEDFQGPVPLQLLLSPRNVGLLADTRPREWDLLLFLLRELVEKGLMGRMEIEACLGSLHQAQWPGDFAEELATLSNLFLAEPHLPEPQLRACELVQPNRGTVLAQS
modifications: Alexa Fluor 488 covalently attached (carboxylic acid, 2,3,5,6-tetrafluorophenyl ester); site not stated; degree of labeling over 90%
notes: Codanin-1 (CDAN1), human, amino acids 1005-1227, codon-optimized for bacterial expression; Same protein as m2, with the dye; also called fluorescently labeled Codanin1_(Cterm); Codanin1_(Cterm) Alexa Fluor 488
B2: Codanin1 C-terminus (amino acids 1005-1227), bacterial (domain or fragment, human, UniProt Q8IWY9 1005-1227, looked up)
chain: AARGERRGCSRACEHHAPLPSHLISEIKDVLSLAVGPRDPDEGVSPEHLEQLLGQLGQTLRCRQFLCPPAEQHLAKCSVELASLLVADQIPILGPPAQYRLERGQARRLLHMLLSLWKEDFQGPVPLQLLLSPRNVGLLADTRPREWDLLLFLLRELVEKGLMGRMEIEACLGSLHQAQWPGDFAEELATLSNLFLAEPHLPEPQLRACELVQPNRGTVLAQS
notes: Codanin-1 (CDAN1), human, amino acids 1005-1227, codon-optimized for bacterial expression; Eluted from the Im7 column by cleavage with His-tagged Ulp1; plasmid pl21 (TriAltus); Anticipated mass is printed as 25 kDa; also called C-terminal part of Codanin1
B3: CDAN1-interacting nuclease 1 (CDIN1), full length, bacterial (natural protein, human, UniProt Q9Y2V0 1-281, looked up)
chain: MILTKAQYDEIAQCLVSVPPTRQSLRKLKQRFPSQSQATLLSIFSQEYQKHIKRTHAKHHTSEAIESYYQRYLNGVVKNGAAPVLLDLANEVDYAPSLMARLILERFLQEHEETPPSKSIINSMLRDPSQIPDGVLANQVYQCIVNDCCYGPLVDCIKHAIGHEHEVLLRDLLLEKNLSFLDEDQLRAKGYDKTPDFILQVPVAVEGHIIHWIESKASFGDECSHHAYLHDQFWSYWNRFGPGLVIYWYGFIQELDCNRERGILLKACFPTNIVTLCHSIA
notes: CDIN1 (C15orf41), human, full length, 281 amino acids; Eluted from the Im7 column by cleavage with His-tagged Ulp1; plasmid pl21 (TriAltus); The anticipated homodimer mass is printed as 67 kDa; Alone in solution it is mainly a homodimer; also called C15orf41

How the values were obtained:
[1] = target: B3; test: MST; 75 nM Alexa Fluor 488-labeled Codanin1_(Cterm) with 0-5 uM CDIN1; 20 mM Tris/HCl, 150 mM NaCl, 5% glycerol, pH 8.0; 25 °C; Hill equation fit; apparent KD; conditions: both partners purified
[2] = target: B3; test: ITC; Codanin1_(Cterm) (110 uM) titrated into CDIN1 (11 uM) in the cell; 15 °C; 20 mM Tris/HCl, 150 mM NaCl, 5% glycerol, pH 8.0; one-site binding model; conditions: both partners purified
[3] = target: the molecule itself; test: SEC-MALS; CDIN1 (2 mg/mL), Codanin1_(Cterm) (2 mg/mL) or the 1:1 complex; Zenix SEC 300 column; 20 mM Tris/HCl, 150 mM NaCl, pH 8.0
[4] = target: B2; test: AUC; sedimentation velocity, 20 °C, 50 000 rpm; 24 uM CDIN1, 24 uM Codanin1_(Cterm), or 1:1 complex at 12 uM each; 20 mM Tris/HCl, 150 mM NaCl, pH 8.0; conditions: both partners purified
[5] = target: B1; test: native gel or EMSA; 1.25 uM Alexa Fluor 488-labeled Codanin1_(Cterm) with 0-20 uM CDIN1 (twofold dilutions); 20 mM Tris/HCl, 150 mM NaCl, 5% glycerol, pH 8.0; 15 min at room temperature; native 10% PAGE, 0.5x TBE, 4 °C; conditions: both partners purified

## B1
[1]
  Kd: 53 ± 8 nM

## B2
[2]
  Kd: 20 ± 4 nM

## B3
[3]
  stoichiometry N: 2
[4]
  stoichiometry N: 1 CDIN1:Codanin1_(Cterm)
[5]
  stoichiometry N: 1 CDIN1:Codanin1_(Cterm)

Reference: publication PMC13370696, “Anemia‐associated mutations disrupt the CDIN1‐Codanin1 complex in inherited congenital dyserythropoietic anemia I (CDA‐I) disease” (The Febs Journal, 2026)
